Source: paper PMC7190724, “Improved GPCR ligands from nanobody tethering” (Nature Communications, 2020)

Biological target: PTHR1_(YFPΔECD)

cAMP response (cAMP-activated luciferase luminescence) at the highest concentration tested, 100 nM, against the maximal response observed; precise EC50 could not be obtained (% of the maximal response): 40
Substance: VHHGFP-PTH(1-9)
